Assays:
NKAKDRMFI = target: T1, NKAKDRMFI
T1 chain: NKAKDRMFI

[1] = target: T2, phage isolate 5-H11 display polypeptide
T2 chain: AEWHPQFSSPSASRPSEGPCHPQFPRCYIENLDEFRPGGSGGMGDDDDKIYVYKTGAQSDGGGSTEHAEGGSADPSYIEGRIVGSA

GNYTDRYFI = target: T3, GNYTDRYFI
T3 chain: GNYTDRYFI

[2] = target: T4, phage isolate 5-H04 display polypeptide
T4 chain: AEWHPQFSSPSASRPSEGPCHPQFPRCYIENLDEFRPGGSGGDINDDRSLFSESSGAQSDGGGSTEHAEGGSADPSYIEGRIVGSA

GNYTDRMFI = target: T5, GNYTDRMFI
T5 chain: GNYTDRMFI

[3] = target: 17 isolates from rounds 2-5 of screening exhibiting the Asp-Arg motif before the scissile bond (P2-P1)
DINDDRSLF = target: T6, DINDDRSLF
T6 chain: DINDDRSLF

GNYTDRRFI = target: T7, GNYTDRRFI
T7 chain: GNYTDRRFI

[4] = target: T8, phage isolate 5-A08 display polypeptide
T8 chain: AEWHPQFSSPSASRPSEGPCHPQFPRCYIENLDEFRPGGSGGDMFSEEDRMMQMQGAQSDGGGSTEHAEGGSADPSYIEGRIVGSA

GDDDDK-β-naphthylamine = target: T9, GDDDDK-β-naphthylamine
T9 chain: GDDDDK

[5] = target: T10, GDDDDKIYV (positive control test peptide)
T10 chain: GDDDDKIYV

[6] = target: T11, phage isolate 5-B05 display polypeptide
T11 chain: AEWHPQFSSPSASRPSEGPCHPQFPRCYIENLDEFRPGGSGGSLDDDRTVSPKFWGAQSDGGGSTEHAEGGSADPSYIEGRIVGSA

[7] = target: T12, … (negative control test peptide)
T12 chain: AVLSNVMFI

B1: recombinant light chain enterokinase (Novagen, Madison, Wis.) (protein)
chain: IVGGSDSREGAWPWVVALYFDDQQVCGASLVSRDWLVSAAHCVYGRNMEPSKWKAVLGLHMASNLTSPQIETRLIDQIVINPHYNKRRKNNDIAMMHLEMKVNYTDYIQPICLPEENQVFPPGRICSIAGWGALIYQGSTADVLQEADVPLLSNEKCQQQMPEYNITENMVCAGYEAGGVDSCQGDSGGPLMCQENNRWLLAGVTSFGYQCALPNRPGVYARVPRFTEWIQSFLH
Question: With B1 as the protein, how does the Cleavage Rate (NKAKDRMFI) read?
Answer: 0.26 nmol/min

Question: What about the rate relative to standard substrate (NKAKDRMFI) of the same protein?
Answer: 0.6

Question: What about the “enterokinase cleavage rate (phage ELISA, release from streptavidin)” value (shortened to “enterokinase cleavage rate”) [1] of the same protein?
Answer: the cleavage rate for the (Asp)4-Lys-containing recognition sequence 5-H11 (SEQ ID NO:194) was slower than for at least three of the other isolates

Question: What about the Cleavage Rate (GNYTDRYFI) of the same protein?
Answer: 0.24 nmol/min

Question: What about the rate relative to standard substrate (GNYTDRYFI) of the same protein?
Answer: 0.5

Question: What about the “enterokinase cleavage rate” value [2] of the same protein?
Answer: isolate 5-H04 (SEQ ID NO:188) shown in Table 5 was the most readily cut

Question: And the Cleavage Rate (GNYTDRMFI)?
Answer: 0.81 nmol/min

Question: What about the rate relative to standard substrate (GNYTDRMFI) of the same protein?
Answer: 1.8

Question: And the ratio (Va/Vb) against reference peptide GDDDDK-βNA (relative kcat/Km) (GNYTDRMFI)?
Answer: 3.5

Question: And the “cleavage at 300 nM enterokinase (phage ELISA)” value [3]?
Answer: All of the phage isolates were readily cleaved when the enterokinase concentration was raised to 300 nM

Question: And the Cleavage Rate (DINDDRSLF)?
Answer: 1.43 nmol/min

Question: And the rate relative to standard substrate (DINDDRSLF)?
Answer: 3.1

Question: What about the ratio (Va/Vb) against reference peptide GDDDDK-βNA (relative kcat/Km) (DINDDRSLF) of the same protein?
Answer: 30

Question: And the Cleavage Rate (GNYTDRRFI)?
Answer: 0.18 nmol/min

Question: And the rate relative to standard substrate (GNYTDRRFI)?
Answer: 0.4

Question: And the “enterokinase cleavage rate” value [4]?
Answer: the cleavage rate for ... 5-H11 (SEQ ID NO:194) was slower than for at least three of the other isolates, i.e., 5-A08 (SEQ ID NO:137), 5-B05 (SEQ ID NO:145) and 5-H04 (SEQ ID NO:188)

Question: And the Cleavage Rate (GDDDDK-β-naphthylamine)?
Answer: 0.46 nmol/min

Question: And the rate relative to standard substrate (GDDDDK-β-naphthylamine)?
Answer: 1

Question: And the Cleavage Rate [5]?
Answer: 0.34 nmol/min

Question: What about the rate relative to standard substrate [5] of the same protein?
Answer: 0.7

Question: And the ratio (Va/Vb) against reference peptide GDDDDK-βNA (relative kcat/Km) [5]?
Answer: 1

Question: What about the “enterokinase cleavage rate” value [6] of the same protein?
Answer: the cleavage rate for ... 5-H11 (SEQ ID NO:194) was slower than for at least three of the other isolates, i.e., 5-A08 (SEQ ID NO:137), 5-B05 (SEQ ID NO:145) and 5-H04 (SEQ ID NO:188)

Question: And the “enterokinase cleavage (HPLC, mass spectroscopy)” value [7]?
Answer: No cleavage occurred with the negative control peptide (SEQ ID NO:198)
